The source of these data is paper PMC12691639.

This experiment deals with K62-HA (K62 killer toxin with a C-terminal hemagglutinin tag), expressed by S. cerevisiae (Saccharomyces paradoxus).

The substance “K62-HA (K62 killer toxin with a C-terminal hemagglutinin tag), expressed by S. cerevisiae (natural protein)” showed a stoichiometry N of 2.
